Experiments:
dock7_human DOCK7 = dock7_human DOCK7 (UniProt Q96N67)
vac14_human VAC14 = vac14_human VAC14 (UniProt Q08AM6)
UniProt Q08AM6, sequence (Q08AM6 whole entry): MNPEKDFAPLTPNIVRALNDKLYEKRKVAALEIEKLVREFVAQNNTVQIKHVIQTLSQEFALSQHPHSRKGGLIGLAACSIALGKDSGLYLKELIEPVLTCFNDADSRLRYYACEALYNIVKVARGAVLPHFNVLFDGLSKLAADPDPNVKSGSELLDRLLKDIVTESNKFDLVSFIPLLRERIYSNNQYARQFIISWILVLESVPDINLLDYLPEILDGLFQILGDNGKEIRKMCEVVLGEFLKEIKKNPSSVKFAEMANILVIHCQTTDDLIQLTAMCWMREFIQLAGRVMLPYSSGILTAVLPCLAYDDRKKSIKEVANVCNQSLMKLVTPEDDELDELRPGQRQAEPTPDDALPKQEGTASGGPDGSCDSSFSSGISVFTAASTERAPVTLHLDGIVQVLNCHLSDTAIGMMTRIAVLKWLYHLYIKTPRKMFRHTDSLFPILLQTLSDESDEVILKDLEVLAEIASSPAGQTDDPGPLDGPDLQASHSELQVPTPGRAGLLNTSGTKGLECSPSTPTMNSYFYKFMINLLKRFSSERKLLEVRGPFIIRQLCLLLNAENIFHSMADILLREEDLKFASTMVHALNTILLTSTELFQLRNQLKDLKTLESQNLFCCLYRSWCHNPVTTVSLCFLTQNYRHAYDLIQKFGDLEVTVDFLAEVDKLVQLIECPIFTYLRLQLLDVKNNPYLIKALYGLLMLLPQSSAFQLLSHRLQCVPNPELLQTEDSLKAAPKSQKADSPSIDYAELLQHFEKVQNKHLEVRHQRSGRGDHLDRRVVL

UniProt Q96N67, sequence (Q96N67 whole entry): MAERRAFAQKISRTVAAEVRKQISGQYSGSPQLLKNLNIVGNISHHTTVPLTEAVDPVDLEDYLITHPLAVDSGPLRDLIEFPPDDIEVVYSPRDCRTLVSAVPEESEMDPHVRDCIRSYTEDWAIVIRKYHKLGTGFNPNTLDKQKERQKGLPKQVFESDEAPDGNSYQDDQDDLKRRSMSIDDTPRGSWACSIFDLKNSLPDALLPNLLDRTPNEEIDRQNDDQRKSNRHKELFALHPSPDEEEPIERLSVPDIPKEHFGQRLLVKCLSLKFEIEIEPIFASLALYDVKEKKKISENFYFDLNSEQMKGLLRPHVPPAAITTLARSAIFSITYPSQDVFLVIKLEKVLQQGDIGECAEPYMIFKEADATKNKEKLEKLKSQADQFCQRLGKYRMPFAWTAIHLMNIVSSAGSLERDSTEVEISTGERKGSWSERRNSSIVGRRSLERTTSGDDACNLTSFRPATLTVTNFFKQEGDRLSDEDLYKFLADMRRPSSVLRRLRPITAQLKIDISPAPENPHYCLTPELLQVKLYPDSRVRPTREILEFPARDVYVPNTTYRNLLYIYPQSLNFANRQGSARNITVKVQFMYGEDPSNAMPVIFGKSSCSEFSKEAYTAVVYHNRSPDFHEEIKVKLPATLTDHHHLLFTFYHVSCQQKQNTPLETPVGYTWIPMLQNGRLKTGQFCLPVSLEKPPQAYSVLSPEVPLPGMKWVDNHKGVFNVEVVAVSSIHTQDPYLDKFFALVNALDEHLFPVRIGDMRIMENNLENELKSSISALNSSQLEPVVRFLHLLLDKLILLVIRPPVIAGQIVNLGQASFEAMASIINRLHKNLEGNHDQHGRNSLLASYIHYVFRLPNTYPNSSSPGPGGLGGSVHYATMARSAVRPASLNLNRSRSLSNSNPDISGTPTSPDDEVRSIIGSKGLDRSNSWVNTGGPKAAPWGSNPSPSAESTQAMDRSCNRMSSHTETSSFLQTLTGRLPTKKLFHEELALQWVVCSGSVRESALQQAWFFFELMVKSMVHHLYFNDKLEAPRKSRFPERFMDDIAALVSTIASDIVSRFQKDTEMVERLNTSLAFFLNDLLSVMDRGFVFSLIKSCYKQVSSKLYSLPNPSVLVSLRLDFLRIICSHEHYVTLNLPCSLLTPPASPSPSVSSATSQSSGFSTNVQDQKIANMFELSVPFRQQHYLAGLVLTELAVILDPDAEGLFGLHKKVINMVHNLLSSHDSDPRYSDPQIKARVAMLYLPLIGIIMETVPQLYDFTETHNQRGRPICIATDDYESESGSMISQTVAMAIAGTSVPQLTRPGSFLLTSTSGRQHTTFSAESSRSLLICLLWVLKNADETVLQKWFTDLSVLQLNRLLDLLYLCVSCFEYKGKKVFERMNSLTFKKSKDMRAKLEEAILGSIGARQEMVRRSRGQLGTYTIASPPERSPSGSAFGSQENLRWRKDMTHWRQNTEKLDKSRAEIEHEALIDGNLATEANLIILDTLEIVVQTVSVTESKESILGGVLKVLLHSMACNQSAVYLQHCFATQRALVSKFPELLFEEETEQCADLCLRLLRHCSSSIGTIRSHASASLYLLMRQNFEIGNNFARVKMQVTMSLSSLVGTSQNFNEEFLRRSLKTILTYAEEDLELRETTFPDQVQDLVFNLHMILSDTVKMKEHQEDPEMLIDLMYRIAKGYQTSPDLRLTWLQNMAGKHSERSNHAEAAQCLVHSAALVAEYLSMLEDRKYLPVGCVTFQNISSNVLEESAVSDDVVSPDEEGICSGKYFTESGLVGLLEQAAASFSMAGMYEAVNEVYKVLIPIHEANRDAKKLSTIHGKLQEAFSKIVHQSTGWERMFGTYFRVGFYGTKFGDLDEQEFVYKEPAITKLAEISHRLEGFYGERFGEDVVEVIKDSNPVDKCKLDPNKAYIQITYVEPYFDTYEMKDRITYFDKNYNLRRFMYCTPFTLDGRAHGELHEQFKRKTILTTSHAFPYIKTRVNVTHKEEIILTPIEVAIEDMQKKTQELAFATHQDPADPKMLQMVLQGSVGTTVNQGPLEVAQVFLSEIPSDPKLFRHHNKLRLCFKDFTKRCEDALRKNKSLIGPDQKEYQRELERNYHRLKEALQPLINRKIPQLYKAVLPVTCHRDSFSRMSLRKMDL

Substance | effect of a mutation on the interaction (dock7_human DOCK7) | effect of a mutation on the interaction (vac14_human VAC14)
Neurobeachin-like protein 2 (Homo sapiens), Q6ZNJ1 G2290W;E2294G | decreasing interaction strength | decreasing interaction strength
Neurobeachin-like protein 2 (Homo sapiens), Q6ZNJ1 M2080K | with no effect | decreasing interaction strength
Neurobeachin-like protein 2 (Homo sapiens), Q6ZNJ1 P2100L | disrupting interaction strength | decreasing interaction strength
Neurobeachin-like protein 2 (Homo sapiens), Q6ZNJ1 R2172H | disrupting interaction strength | with no effect
Neurobeachin-like protein 2 (Homo sapiens), Q6ZNJ1 S2269L | with no effect | increasing interaction strength

From IntAct's records for PubMed 29187380
